The results in this text go back to article PMC9313494 (2022).

The assay addresses Lys-Nle peptide (norleucine (Nle) residues (Nle12 named); D-residues (D-Lys1, D-Lys8 named); terminal thiol group). The assay is described as follows: SPR. (In SPR one partner is held on a chip, and binding of the other changes the refractive index at the surface.)

One may read the koff as a measure of how fast the partners let go of each other. A higher koff goes with fast dissociation.

B1: bone morphogenetic protein-2 (BMP-2) (ligand)
chain: QAKHKQRKRLKSSCKRHPLYVDFSDVGWNDWIVAPPGYHAFYCHGECPFPLADHLNSTNHAIVQTLVNSVNSKIPKACCVPTELSAISMLYLDENEKVVLKNYQDMVVEGCGCR
The molecule B1 displayed a koff of 0.00973 s⁻¹.
